According to PMC3848071 (Acta Naturae, 2013):

Experiments:
MGL from C. sporogenes = target: T1, MGL from C. sporogenes (Clostridium sporogenes, UniProt A0A7X5SZI3); assay type: biochemical; conditions: read-out: MGL from C. sporogenes / Кm
T1 construct: gene megL

MGL from C. tetani = target: T2, MGL from C. tetani (Clostridium tetani, UniProt Q890V5); conditions: read-out: MGL from C. tetani / Кm
T2 construct: gene CTC_02530

MGL from P. gingivalis = MGL from P. gingivalis (Porphyromonas gingivalis, UniProt Q7MX71); conditions: read-out: MGL from P. gingivalis / Кm
CSCC[C@H](N)C(=O)O = assay: purified protein
CCSC[C@H](N)C(=O)O = assay: purified protein
[1] = system: C[S+]([O-])CC[C@H](N)C(=O)O; assay: purified protein
[2] = system: N[C@@H](CSCc1ccccc1)C(=O)O; assay: purified protein

| Molecule | Km (MGL from C. sporogenes) | Km (MGL from C. tetani) | Km (MGL from P. gingivalis) | Km (CSCC[C@H](N)C(=O)O) | kcat/Km (CSCC[C@H](N)C(=O)O) | Km (CCSC[C@H](N)C(=O)O) | kcat/Km (CCSC[C@H](N)C(=O)O) | Km [1] | kcat/Km [1] | Km [2] | kcat/Km [2] |
| --- | --- | --- | --- | --- | --- | --- | --- | --- | --- | --- | --- |
| CCSCC[C@H](N)C(=O)O [S-Et-L-Hcy] | 278 µM | 545 µM | 930 µM |  |  |  |  |  |  |  |  |
| MGL from C. tetani (Clostridium tetani E88) |  |  |  | 947 µM | 12700 M⁻¹ s⁻¹ |  |  |  |  |  |  |
| MGL from P. gingivalis (Porphyromonas gingivalis W83) |  |  |  | 1770 µM | 2200 M⁻¹ s⁻¹ | 2170 µM | 3710 M⁻¹ s⁻¹ | 12220 µM | 413 M⁻¹ s⁻¹ | 1470 µM | 3940 M⁻¹ s⁻¹ |
